Measured values reported in US20200299395A1 (MOGAM INSTITUTE FOR BIOMEDICAL RESEARCH, published 2020).

T1: recombinant human BCMA (Cat. No. 193-BC, R&D Systems) (human, UniProt Q02223 1-54)
T1 sequence (looked up): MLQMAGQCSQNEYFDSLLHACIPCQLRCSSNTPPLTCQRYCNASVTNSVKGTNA

T2: BCMA expressed on multiple myeloma cell lines H929 and MM1S (UniProt Q02223 1-184, limits assumed)
T2 construct: whole, on cells; Endogenous BCMA on tumour cell lines; also called BMCA; cell surface BCMA
T2 sequence (looked up): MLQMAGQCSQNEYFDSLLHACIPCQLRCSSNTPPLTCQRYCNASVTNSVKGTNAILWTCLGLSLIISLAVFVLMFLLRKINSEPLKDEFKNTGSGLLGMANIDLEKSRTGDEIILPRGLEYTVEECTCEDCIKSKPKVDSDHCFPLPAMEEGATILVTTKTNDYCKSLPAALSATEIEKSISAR

B1: Clone MN1 (VH domain) (VHH)
VHH: EVQLVESGGGLVQPGGSLRLSCAASGFTFTAYDMGWVRQAPGKGPEWVSLISSDSGDTWYDDSVKGRFTISRDNSKNTLYLQMNSLRAEDTAVYYCARLGAYSTTYDYWGQGTLVTVSS
notes: Single-domain antibody: a VH domain from a synthetic phage library, not camelid; Expressed in E. coli
B2: MN1 VH-Fc protein (Fc fusion)
chain: EVQLVESGGGLVQPGGSLRLSCAASGFTFTAYDMGWVRQAPGKGPEWVSLISSDSGDTWYDDSVKGRFTISRDNSKNTLYLQMNSLRAEDTAVYYCARLGAYSTTYDYWGQGTLVTVSS
notes: VH domain fused to a human IgG1 Fc domain; not shown: human IgG1 Fc domain
B3: Clone MN8 (VH domain) (VHH)
VHH: EVQLVESGGGLVQPGGSLRLSCAASGFTFSSYAMGWVRQAPGKGPEVVSLISGSGGSTWYDDSVKGRFTISRDNSKNTLYLQMNSLRAEDTAVYYCASPEDAPSYSRWGQGTLVTVSS
notes: as for B1
B4: MN8 VH-Fc protein (Fc fusion)
chain: EVQLVESGGGLVQPGGSLRLSCAASGFTFSSYAMGWVRQAPGKGPEVVSLISGSGGSTWYDDSVKGRFTISRDNSKNTLYLQMNSLRAEDTAVYYCASPEDAPSYSRWGQGTLVTVSS
notes: as for B2
B5: Clone MN5 (VH domain) (VHH)
VHH: EVQLVESGGGLVQPGGSLRLSCAASGFTFSSYAMGWVRQAPGKGPEVVSLISGSGGSTWYDDSVKGRFTISRDNSKNTLYLQMNSLRAEDTAVYYCASREDNMTTWGQGTLVTVSS
notes: as for B1
B6: MN5 VH-Fc protein (Fc fusion)
chain: EVQLVESGGGLVQPGGSLRLSCAASGFTFSSYAMGWVRQAPGKGPEVVSLISGSGGSTWYDDSVKGRFTISRDNSKNTLYLQMNSLRAEDTAVYYCASREDNMTTWGQGTLVTVSS
notes: as for B2
B7: Clone MN7 (VH domain) (VHH)
VHH: EVQLVESGGGLVQPGGSLRLSCAASGFTFSSYAMGWVRQAPGKGPEVVSLISGSGGSTWYDDSVKGRFTISRDNSKNTLYLQMNSLRAEDTAVYYCASPEDMYQTWGQGTLVTVSS
notes: as for B1
B8: MN7 VH-Fc protein (Fc fusion)
chain: EVQLVESGGGLVQPGGSLRLSCAASGFTFSSYAMGWVRQAPGKGPEVVSLISGSGGSTWYDDSVKGRFTISRDNSKNTLYLQMNSLRAEDTAVYYCASPEDMYQTWGQGTLVTVSS
notes: as for B2

Key:
[1] = target: BCMA expressed on multiple myeloma cell lines H929 and MM1S (UniProt Q02223); test: flow cytometry, H929 cells, negative control without VH-Fc protein [B), H929 table]
[2] = target: BCMA expressed on multiple myeloma cell lines H929 and MM1S (UniProt Q02223); test: flow cytometry, MM1S cells, negative control without VH-Fc protein [B), MM1S table]
[3] = target: BCMA expressed on multiple myeloma cell lines H929 and MM1S (UniProt Q02223); test: flow cytometry, H929 cells, negative control without VH domain [B), H929 table]
[4] = target: BCMA expressed on multiple myeloma cell lines H929 and MM1S (UniProt Q02223); test: flow cytometry, MM1S cells, negative control without VH domain [B), MM1S table]
[5] = target: T1, recombinant human BCMA (Cat. No. …); test: BLI (Octet), BCMA fixed on Anti-Fc Biosensor, antibody 0.078 to 5 nM
Experimental: Among the selected 20 clones, Clones MN1, MN5, MN7, and MN8 which were expected to have excellent binding capacity to BCMA-expressing tumor cell lines were purified. Quantitative binding capacity (affinity) of Clones MN1, MN5, MN7, and MN8 to recombinant human BCMA was measured using the OCTET system (Pall Corporation). BCMA (Cat. No. 193-BC, R&D Systems) purified from HEK293 cells was fixed to Biosensor (Pall Corporation). Then, the MN1, MN5, MN7, or MN8 antibody diluted sequentially in Kinetic bfr (Pall Corporation) was allowed to associate in a concentration range of 0.078 nM to 5 nM for 120 seconds, and was allowed to dissociate by performing flowing at a flow rate of 30 μl/min for 1,800 seconds. Dissociation of the BCMA-bound antibody was induced by flowing 10 mM glycine-HCl pH 1.5 at a flow rate of 30 μl/min for 30 seconds (Table 3). The binding affinity was obtained as the kinetic parameters (Kon and Koff) and the equilibrium dissociation constant (KD) using the Octet system data analysis software (Table 4).

[6] = target: T2, BCMA expressed on multiple myeloma cell …; test: flow cytometry, H929 cells, purified VH domain (text: 1 uM); control iso_anti-His-PE Median 10.8 [B), H929 table]
Experimental: (§1) Multiple myeloma cells in culture were placed in a 50 ml tube and centrifuged at 1,000 rpm for 5 minutes at room temperature. Then, the culture solution was discarded and washing with PBS was performed once. The resultant was suspended in FACS buffer and then transferred to a round bottom tube. Centrifugation was performed at 2,000 rpm for 3 minutes at room temperature. The supernatant was discarded and loosening was performed with FACS buffer so as to obtain 1×10⁶ cells/100 μl. Then, 1 uM of the purified candidate antibody was added thereto at 4° C.
(§2) As a control, FACS buffer containing no candidate antibody was added. After 30 minutes, washing with FACS buffer was performed twice. […] The cells were collected by centrifugation at 2,000 rpm for 3 minutes, and then 200 μl of fixation buffer was added thereto. The cells were resuspended and measured by FACS Calibur™. The results are illustrated in FIGS. 4 and 5.

[7] = target: T2, BCMA expressed on multiple myeloma cell …; test: flow cytometry, MM1S cells, purified VH domain (text: 1 uM); control iso_anti-His-PE Median 3.74 [B), MM1S table]
Experimental: as §1, §2

[8] = target: T2, BCMA expressed on multiple myeloma cell …; test: flow cytometry, MM1S cells, purified VH domain (text: 1 uM); control iso_anti-His-PE Mean 4.19 [B), MM1S table]
Experimental: as §1, §2

[9] = target: T2, BCMA expressed on multiple myeloma cell …; test: flow cytometry, H929 cells, purified VH domain (text: 1 uM); control iso_anti-His-PE Mean 13.5 [B), H929 table]
Experimental: as §1, §2

[10] = target: T2, BCMA expressed on multiple myeloma cell …; test: flow cytometry, MM1S cells, purified VH-Fc protein, 100nM per the sample name; control anti-hFc-PE Median 2.50 [B), MM1S table]
[11] = target: T2, BCMA expressed on multiple myeloma cell …; test: flow cytometry, H929 cells, purified VH-Fc protein, 100nM per the sample name; control anti-hFc-PE Median 4.82 [B), H929 table]
[12] = target: T2, BCMA expressed on multiple myeloma cell …; test: flow cytometry, H929 cells, purified VH-Fc protein, 100nM per the sample name; control anti-hFc-PE Mean 5.41 [B), H929 table]
[13] = target: T2, BCMA expressed on multiple myeloma cell …; test: flow cytometry, MM1S cells, purified VH-Fc protein, 100nM per the sample name; control anti-hFc-PE Mean 2.81 [B), MM1S table]

Molecule | Kd [5] [nM] | Median FL2-H [6] | Median FL2-H [7] | Mean FL2-H [8] | Mean FL2-H [9] | Median FL2-H [10] | Median FL2-H [11] | Mean FL2-H [12] | Mean FL2-H [13] | other results
anti-hFc-PE (antibody) | – | – | – | – | – | – | – | – | – | Mean FL2-H [1]: 5.41; Median FL2-H [1]: 4.82; Mean FL2-H [2]: 2.81; Median FL2-H [2]: 2.5
iso_anti-His-PE (antibody) | – | – | – | – | – | – | – | – | – | Mean FL2-H [3]: 13.5; Median FL2-H [3]: 10.8; Mean FL2-H [4]: 4.19; Median FL2-H [4]: 3.74
B1 | 0.7 | 50.4 | 14.3 | 24 | 62.9 | – | – | – | – | –
B2 | – | – | – | – | – | 42.1 | 101 | 134 | 49.9 | –
B3 | 1.17 | 12.9 | 4.43 | 4.93 | 15.1 | – | – | – | – | –
B4 | – | – | – | – | – | 2.77 | 10.3 | 14 | 3.13 | –
B5 | 2.22 | 22.9 | 9.81 | 13.9 | 25.6 | – | – | – | – | –
B6 | – | – | – | – | – | 2.64 | 7.78 | 10.6 | 3.02 | –
B7 | 2.23 | 11.8 | 4.49 | 5.38 | 14.8 | – | – | – | – | –
B8 | – | – | – | – | – | 2.55 | 7.92 | 10.1 | 2.89 | –
